# PMC12722041, “The low complexity linker of DNAJB6b is key to its anti-amyloid function” (QRB Discovery, 2025)
# B1: DNAJB6b (76–186), the 110-residue low complexity linker of DNAJB6b (domain or fragment, UniProt O75190-2 76-186, looked up)
# chain: GGGGGSHFDSPFEFGFTFRNPDDVFREFFGGRDPFSFDFFEDPFEDFFGNRRGPRGSRSRGTGSFFSAFSGFPSFGSGFSSFDTGFTSFGSLGHGGLTSFSSTSFGGSGMG
# notes: also called JB6 linker; linker peptide
# Target: the molecule itself
# Test: dynamic light scattering; fresh linker sample after dialysis from 4 M urea into 20 mM sodium phosphate, 0.2 mM EDTA, pH 8.0; 25 μM stock
protein,measurement,value
B1,binding result,binds
